The text below walks through data of patent US20080095768A1 (PDL BIOPHARMA, published 2008).

The target of this experiment is T1, human CS1 (CD2-subset1) (human, UniProt Q9NQ25 23-335).
T1 construct: Endogenous CS1 on primary myeloma cells / CD138+ tissue plasma cells; also called SLAMF7; CRACC
The experiment is described as follows: flow cytometry on primary myeloma cells and IHC on normal tissues, using HuLuc63 as the detecting antibody. As for the experimental part:
Gene expression was assessed using an Affymetrix GeneChip array. Protein expression was measured by flow cytometry, and immunohistochemistry (IHC), using HuLuc63, a novel humanized anti-CS1 mAb. HuLuc63-mediated lysis of myeloma cells via antibody dependent cellular cytotoxicity (ADCC) was measured by ⁵¹Cr-release.
CS1 mRNA was detected in CD138+ purified plasma cells from >95% of healthy donors, newly diagnosed myeloma patients, and those with relapsed myeloma (FIG. 1). […] Finally, we determined that HuLuc63 could induce killing of myeloma cells using purified allogeneic NK cells (FIG. 2). […] Our data support the potential clinical utility of CS1-targeted therapy.

B1: HuLuc63 (antibody, IgG1, V domains shown)
VH: EVQLVESGGGLVQPGGSLRLSCAASGFDFSRYWMSWVRQAPGKGLEWIGEINPDSSTINYAPSLKDKFIISRDNAKNSLYLQMNSLRAEDTAVYYCARPDGNYWYFDVWGQGTLVTVSS
VL: DIQMTQSPSSLSASVGDRVTITCKASQDVGIAVAWYQQKPGKVPKLLIYWASTRHTGVPDRFSGSGSGTDFTLTISSLQPEDVATYYCQQYSSYPYTFGQGTKVEIK
notes: Humanized recombinant monoclonal IgG1; also called HyLuc63; humanized anti-CS1 mAb
On to B1, for which the binding result is “binds”.
